Earlier results as cited in US20260217837A1, “FGFR3 BINDING MOLECULES AND METHODS OF USE THEREOF” (Regeneron Pharmaceuticals, Inc., priority 2023, published 2026).
Positions count from the first letter of the chain named. In names and notes the source's numbering stands.

B1: PRO-026: anti-FGFR3 IIIc antibody of WO 2006/048877 A2; SEQ ID NO: 36/37 (antibody, V domains shown)
VH: QVQLVQSGAEVKKPGASVKVSCKASGYTFTSYYMHWVRQAPGQGLEWMGWINPNSGGTNYAQKFQGRVTMTRDTSISTAYMELSSLRSEDTAVYYCARGYWYAYFTYINYGYFDNWGQGTLVTVSS
VL: DIALTQPASVSGSPGQSITISCTGTSSDVGGYNYVSWYQQHPGKAPKLMIYDVSNRPSGVSNRFSGSKSGNTASLTISGLQAEDEADYYCQSYDNNSDWFGGGTKLTVLGQ
B2: MS-Pro-55: anti-FGFR3 Ig-like domain 3 antibody of WO 2002/102972 A2; SEQ ID NO: 44/45 (antibody, V domains shown)
VH: QVQLVQSGAEVKKPGASVKVSCKASGYTFTSYYMHWVRQAPGQGLEWMGWINPNSGGTNYAQKFQGRVTMTRDTSISTAYMELSSLRSEDTAVYYCARSMNSTMYWYLRRVLFDHWGQGTLVTVSS
VL: DIALTQPASVSGSPGQSITISCTGTSSDVGGYNYVSWYQQHPGKAPKLMIYDVSNRPSGVSNRFSGSKSGNTASLTISGLQAEDEADYYCQSYDMYNYIVFGGGTKLTVLGQ
B3: PRO-055: anti-FGFR3 IIIc antibody of WO 2006/048877 A2; SEQ ID NO: 44/45 (antibody, V domains shown)
VH: B2 VH
VL: B2 VL
B4: 184.6.1.N54S: anti-FGFR3 Ig-like domain 3 antibody of WO 2010/111367 A1; SEQ ID NO: 63/64 (antibody, V domains shown)
VH: EVQLVESGGGLVQPGGSLRLSCAASGFTFTSTGISWVRQAPGKGLEWVGRIYPTSGSTNYADSVKGRFTISADTSKNTAYLQMNSLRAEDTAVYYCARARTYGIYDLYVDYTEYVMDYWGQGTLV
VL: DIQMTQSPSSLSASVGDRVTITCRASQDVDTSLAWYQQKPGKAPKLLIYSASFLYSGVPSRFSGSGSGTDFTLTISSLQPEDFATYYCQQSTGHPQTFGQGTKVEIKR
B5: 20B4: anti-FGFR3 Igl 3 antibody of WO 2010/002862 A2; SEQ ID NO: 57/58 (antibody, V domains shown)
VH: EIQLQQSGPELVKPGASVKVSCKASGYSLTDYNMYWVKQSHGKSLEWIGYIDPYNGGTSYNQKFKGKATLTVDKSSSTAFMHLNSLTSEDSAVYYCARSLGPDFDYWGQGTTLTVSS
VL: QIVLTQSPAIMSASPGEKVTMTCSASSSVNYMHWYQQKSGTSPKRWIYDTSKLASGVPARFSGSGSGTSYSLTISSMEAEDTATYYCQQWNSNPLTFGAGTKLELK
B6: PRO-029: anti-FGFR3 IIIc antibody of WO 2006/048877 A2; SEQ ID NO: 40/49 (antibody, V domains shown)
VH: QVQLVQSGAEVKKPGASVKVSCKASGYTFTSYYMHWVRQAPGQGLEWMGWINPNSGGTNYAQKFQGRVTMTRDTSISTAYMELSSLRSEDTAVYYCARTWQYSYFYYLDGGYYFDIWGQGTLVTVSS
VL: DIVLTQSPATLSLSPGERATLSCRASQSVSSSYLAWYQQKPGQAPRLLIYGASSRATGVPARFSGSGSGTDFTLTISSLEPEDFATYYCQQTNNAPVTFGQGTKVEIKRT
B7: MS-Pro-54: anti-FGFR3 Ig-like domain 3 antibody of WO 2002/102972 A2; SEQ ID NO: 42/43 (antibody, V domains shown)
VH: QVQLVQSGAEVKKPGASVKVSCKASGYTFTSYYMHWVRQAPGQGLEWMGWINPNSGGTNYAQKFQGRVTMTRDTSISTAYMELSSLRSEDTAVYYCARNMAYTNYQYVNMPHFDYWGQGTLVTVSS
VL: DIELTQPPSVSVAPGQTARISCSGDALGDKYASWYQQKPGQAPVLVIYDDSDRPSGIPERFSGSNSGNTATLTISGTQAEDEADYCQSYDYFKLVFGGGTKLTVLGQ
B8: PRO-054: anti-FGFR3 IIIc antibody of WO 2006/048877 A2; SEQ ID NO: 42/50 (antibody, V domains shown)
VH: B7 VH
VL: DIELTQPPSVSVAPGQTARISCSGDALGDKYASWYQQKPGQAPVLVIYDDSDRPSGIPERFSGSNSGNTATLTISGTQAEDEADYYCQSYDYFKLVFGGGTKLTVLGQ
B9: 15D8: anti-FGFR3 Igl 3 antibody of WO 2010/002862 A2; SEQ ID NO: 51/52 (antibody, V domains shown)
VH: EIQLQQSGPELVKPGASVKVSCKASGYAFTSYNMYWVKQSHGKSLEWIGYIDPYNGGTSYNQKFKGKATLTVDKSSSTAYMHLNSLTSEDSAVYYCAREGGNYEAWFAYWGQGTLVTVSA
VL: QIVLTQSPALMSASPGEKVTMTCSASSSVSYMYWYQQKPRSSPKPWIYLTSYLASGVPARFSGSGSGTSYSLTISSMEAEDAATYYCQQWSSYPLTFGAGTKLELK
B10: 27H2: anti-FGFR3 Igl 3 antibody of WO 2010/002862 A2; SEQ ID NO: 53/54 (antibody, V domains shown)
VH: B9 VH with S59R, L70M
VL: B9 VL with Y52N, Y93N
B11: 4E7(7D12): anti-FGFR3 Igl 3 antibody of WO 2010/002862 A2; SEQ ID NO: 56/54 (antibody, V domains shown)
VH: B9 VH with S59R
VL: B9 VL with Y52N, Y93N
B12: 2G4: anti-FGFR3 Igl 3 antibody of WO 2010/002862 A2; SEQ ID NO: 55/54 (antibody, V domains shown)
VH: B9 VH with S59R, Y60D
VL: B9 VL with Y52N, Y93N
B13: Hu15D8: anti-FGFR3 Igl 3 antibody of WO 2010/002862 A2; SEQ ID NO: 59/60 (antibody, V domains shown)
VH: EVQLVQSGAEVKKPGESLKISCKGSGYSFTSYNMYWVRQMPGKGLEWMGYIDPYNGGTSYNQKFKGKATLTVDKSISTAYLQWSSLKASDTAMYYCAREGGNYEAWFAYWGQGTLVTVSS
VL: DIQLTQSPSSLSASVGDRVTITCSASSSVSYMYWFQQKPGKAPKPLIYLTSYLASGVPSRFSGSGSGTDFTLTISSLQPEDFATYYCQQWSSYPLTFGGGTKVEIK
B14: PRO-001: anti-FGFR3 antibody of WO 2006/048877 A2; SEQ ID NO: 46/29 (antibody, V domains shown)
VH: QVQLQQSGPGLVKPSQTLSLTCAISGDSVSSNSAAWNWIRQSPGRGLEWLGRTYYRSKWYNDYAVSVKSRITINPDTSKNQFSLQLNSVTPEDTAVYYCARSYYPDFDYWGQGTLVTVSS
VL: DIELTQPPSVSVAPGQTARISCSGDALGDKYASWYQQKPGQAPVLVIYDDSDRPSGIPERFSGSNSGNTATLTISGTQAEDEADYYCQSYDGPDLWVFGGGTKLTVLGQ
B15: PRO-002: anti-FGFR3 antibody of WO 2006/048877 A2; SEQ ID NO: 24/25 (antibody, V domains shown)
VH: QVQLVQSGAEVKKPGASVKVSCKASGYTFTSYYMHWVRQAPGQGLEWMGWINPNSGGTNYAQKFQGRVTMTRDTSISTAYMELSSLRSEDTAVYYCARDFLGYEFDYWGQGTLVTVSS
VL: B14 VL with G92Y, P93S, D94A, L95D, W96Y
B16: PRO-012: anti-FGFR3 antibody of WO 2006/048877 A2; SEQ ID NO: 47/27 (antibody, V domains shown)
VH: QVQLKESGPALVKPTQTLTLTCTFSGFSLSTSGVGVGWIRQPPGKALEWLALIDWDDDKYYSTSLKTRLTISKDTSKNQVVLTMTNMDPVDTATYYCARYHSWYEMGYYGSTVGYMFDYWGQGTLVTVSS
VL: B8 VL with Y92F, F93D, K94F, L95A
B17: MS-PRO-12: anti-FGFR3 Ig-like domain 2 antibody of WO 2002/102972 A2; SEQ ID NO: 26/27 (antibody, V domains shown)
VH: QVQLKESGPALVKPQTLTLTCTFSGFSLSTSGVGVGWIRQPPGKALEWLALIDWDDDKYYSTSLKTRLTISKDTSKNQVVLTMTNMDPVDTATYYCARYHSWYEMGYYGSTVGYMFDYWGQGTLVTVSS
VL: B8 VL with Y92F, F93D, K94F, L95A
B18: VH: SEQ ID NO: 7 of PCT Publication No: WO 2010/048026 A2: unnamed anti-FGFR3 Ig-like domain 2 antibody, VH SEQ ID NO: 7 / VL SEQ ID NO: 8 of WO 2010/048026 A2; SEQ ID NO: 61/62 (antibody, V domains shown)
VH: EVQLVQSGAEVKKPGASVKVSCKASGYMFTSYGISWVRQAPGQGLEWMGWVSTYNGDTNYAQKFQGRVTVTTDTSTSTAYMELRSLRSEDTAVYYCARVLGYYDSIDGYYYGMDVWGQGTTVTVSS
VL: QSVLTQPPSLSVAPGKTATFTCGGNNIGDKSVHWYRQKPGQAPVLVMYLDTERPSGIPERMSGSNFGNTATLTITRVEAEDEADYYCQVWDSGSDHVVFGGGTKLTVLG

System: FGFR3
Conditions: Exemplary FGFR3 D3 binding sequences; antibodies of cited PCT publications

Which Activity does the source give for B1 here?
The Activity was “Antagonistic”.

With B2 as the molecule, how does the Activity read?
Its Activity is “Antagonistic”.

With B3 as the molecule, how does the Activity read?
The Activity was “Antagonistic”.

For B4, which Activity is on record?
Its Activity is “Antagonistic”.

Which Activity does the source give for B5 here?
Its Activity is “Antagonistic”.

For B6, which Activity is on record?
The Activity was “Antagonistic”.

With B7 as the molecule, how does the Activity read?
Its Activity is “Antagonistic”.

Which Activity does the source give for B8 here?
The Activity was “Antagonistic”.

Which Activity does the source give for B9 here?
The Activity was “Antagonistic”.

Which Activity does the source give for B10 here?
The Activity was “Antagonistic”.

With B11 as the molecule, how does the Activity read?
Its Activity is “Antagonistic”.

Which Activity does the source give for B12 here?
The Activity was “Antagonistic”.

With B13 as the molecule, how does the Activity read?
Its Activity is “Antagonistic”.

Same assay, conditions: Table T-1, exemplary FGFR3 parental antibodies of cited publications

For B1, which Activity is on record?
Its Activity is “Antagonistic”.

For B14, which Activity is on record?
Its Activity is “Antagonistic”.

With B15 as the molecule, how does the Activity read?
The Activity was “Antagonistic”.

For B2, which Activity is on record?
Its Activity is “Antagonistic”.

Which Activity does the source give for B3 here?
The Activity was “Antagonistic”.

For B16, which Activity is on record?
The Activity was “Antagonistic”.

Which Activity does the source give for B17 here?
The Activity was “Antagonistic”.

For B4, which Activity is on record?
The Activity was “Antagonistic”.

With B5 as the molecule, how does the Activity read?
Its Activity is “Antagonistic”.

For B18, which Activity is on record?
The Activity was “Antagonistic”.

With B6 as the molecule, how does the Activity read?
Its Activity is “Antagonistic”.

With B7 as the molecule, how does the Activity read?
Its Activity is “Antagonistic”.

For B8, which Activity is on record?
Its Activity is “Antagonistic”.

Which Activity does the source give for B9 here?
The Activity was “Antagonistic”.

Which Activity does the source give for B10 here?
The Activity was “Antagonistic”.

With B11 as the molecule, how does the Activity read?
The Activity was “Antagonistic”.

With B12 as the molecule, how does the Activity read?
Its Activity is “Antagonistic”.

Which Activity does the source give for B13 here?
Its Activity is “Antagonistic”.
